No end group written: not given here.
Molecular target: T1, biotinylated ALFA-tag peptide (WT) (synthetic construct, also: biotin with double DoA linker, end not given here)
T1 chain: SRLEEELRRRLTE
Assay: BLI

Kd: 0.165 ± 0.002 nM
B1: ALFA nanobody (NbALFA) (VHH)
VHH: EVQLQESGGGLVQPGGSLRLSCTASGVTISALNAMAMGWYRQAPGERRVMVAAVSERGNAMYRESVQGRFTVTRDFTNKMVSLQMDNLKPEDTAVYYCHVLEDRVDSFHDYWGQGTQVTVSS
